# FireProtDB (doi:10.1021/bi991757+)
# Conditions: Enterobacteria phage 434, pH 6, Urea, CD, KH2PO4 25 mM, KCl 100 mM, reversible: yes, whole UniProt chain shown
protein,measurement,setting,value
"Regulatory protein cro wild type, P03036 (protein) MQTLSERLKKRRIALKMTQTELATKAGVKQQSIQLIEAGVTKRPRFLFEIAMALNCDPVWLQYGTKRGKAA",denaturant m value,5 °C,0.99 kcal/mol/M
same,denaturant midpoint (higher = more stable),5 °C,3.32 M
same,unfolding free energy,5 °C,3.28 kcal/mol
same,denaturant m value,15 °C,0.91 kcal/mol/M
same,denaturant midpoint (higher = more stable),15 °C,3.56 M
same,unfolding free energy,15 °C,3.23 kcal/mol
same,denaturant m value,20 °C,1.01 kcal/mol/M
same,denaturant midpoint (higher = more stable),20 °C,3.42 M
same,unfolding free energy,20 °C,3.44 kcal/mol
same,denaturant m value,25 °C,1 kcal/mol/M
same,denaturant midpoint (higher = more stable),25 °C,3.07 M
same,unfolding free energy,25 °C,3.05 kcal/mol
